# Patent US6340783B1, “Rodent models of human amyloidoses” (University of Washington, priority 1992, dated 2002)
# Entries after “also recorded” stand apart in the source; their conditions may differ. Read-outs that look alike come from different tables or passages of the source.
# Biological target: T1, BAP (residues 1-28) (Homo sapiens, UniProt P05067)
# T1 construct: residues 1-28 of BAP or residues 597-624 of BAPP; purchased Bachem Inc., Torrance, Calif; host or cells: synthetic peptide
# Test: Affinity column chromatography of labeled proteoglycans on BAP (1-28) Affi-gel 10 column
# Type: binding
# Protocol: Approximately 500,000 dpm of ^35S-sulfate labeled PGs isolated from the culture media of ECs were applied to Affi-gel 10 affinity columns containing approximately 0.45 mg of 1) residues 1-28 of BAP, 2) residues 410-429, a region of BAPP present in the extracellular domain, or 3) bovine serum albumin. The labeled PGs were left on the column for 1 hour, after which non-bound radiolabelled PGs were eluted with 25 ml (50 0.5 ml fractions) of TBS+0.1% TX-100 and collected on a fraction collector. Bound PGs were then eluted from the column with 15 mls of 4M MgCl2 in TBS+0.1% TX-100.
# 0.5 mg or 1.0 mg of ligands consisting of 1) BAP (1-28) (Bachem Inc., Torrance, Calif.), 2) a peptide corresponding to residues 410-429 of the BAPP (gift of Dr. Dennis Selkoe, Boston, U.S.A.) or 3) bovine serum albumin (BSA fraction V, Boehringer, Mannheim Biochemical) were dissolved initially in 400 μl of double distilled water to which was added an equal volume of 0.2 M HEPES buffer (pH 7.5) containing 160 mM calcium chloride. The ligand solutions were added to 0.8-1.0 ml of Affi-gel 10 (Biorad, Richmond, Calif.) and coupling was allowed to proceed for 4 hours at 4° C., after which 1/10 volume of IM ethanolamine (pH 8.0) was added and incubation continued for an additional 1-2 hours to block remaining unreacted ester groups. Gel coupled ligand was then transferred to Biorad Econo-columns and washed with TBS in 0.1% Triton-X 100. To assess the amount of bound ligand, soluble (nonbound) protein remaining in the wash buffer was assayed. The affinity columns coupled approximately 90% of ligand initially applied (i.e. 0.45 mg or 0.90 mg).
# ^35S-sulfate labeled PGs isolated from the culture media (360,000 dpm) of ECs and SMCs were applied to Affi-gel 10 columns containing 1) BAP (residues 1-28), 2) BAPP (residues 410-429) or 3) Bovine serum albumin. The labeled PGs were allowed to interact with the affinity gel for 1 hour (preliminary experiments indicated maximum binding efficiency at 1 hour) and non-bound radiolabelled PGs were eluted with 25 ml of TBS+0.1% Triton X-100 (TBS-TX 100). Bound PGs were eluted with either a single-step gradient using 15 mls of 4M MgCl2 in TBS-TX 100 or a linear gradient of 0 to 4M MgCl2 in TBS-TX 100. In some experiments, columns were further eluted with 15 ml of 8M urea in 50 mM Tris-HCl (pH 7.5), with 0.5% Triton X-100 and 3M NaCl. The radioactivity per fraction was determined by scintillation counting. Most experiments were repeated a minimum of three times. Recoveries of applied radioactivity from the affinity columns ranged from 80-95%.
# T1 sequence (P05067 672-699 limits assumed): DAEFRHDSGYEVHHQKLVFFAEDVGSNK
substance,measurement,setting,value
high Mr HSPG: ˜600-800 kDa heparan sulfate proteoglycan isolated from culture media of bovine aortic endothelial cells,binding to BAP (1-28) affinity column,,strong binding; also recorded: bound tightly
same,eluent that removed most bound PGs from BAP column,after 0 to 4M MgCl2 gradient and 4M MgCl2 wash,8M urea+3M NaCl
same,binding to BAP (1-28) affinity column,listed as 125I-HSPG,high affinity
